Values joined by “and” are separate entries in the source; they are usually repeats but may differ in a detail not shown here. Identical values can stand only once. Values belong to the molecule of their own block, whether it stands above or below them.
Columns and labels:
[1] = molecular target: mGluR3 (Rattus norvegicus, UniProt P31422); experiment: Inter-LBD FRET (N-terminal SNAP-tags), live cells; settings: SNAP-mGluR3
[2] = tested on: SNAP-tagged mGluR2 and mGluR3 constructs; experiment: Surface expression measurements; format: cell-based, rat; settings: construct; single measurements
Source text: ImageJ was used to analyze fluorescence intensity of cell clusters. […] Fluorescence intensity values for each construct were normalized to wild-type values for comparison.

[3] = molecular target: mGluR2 (Rattus norvegicus, UniProt P31421); experiment: Inter-LBD FRET (N-terminal SNAP-tags), live cells; settings: SNAP-mGluR2
[4] = molecular target: mGluR2-3xTM4 (Rattus norvegicus, UniProt P31421, A677S/A681F/A685G); experiment: Inter-LBD FRET (N-terminal SNAP-tags), live cells; settings: SNAP-mGluR2-3xTM4

- Basal LBD FRET (%) [1]: 20% and 30% and 23% and 24%
B1: SNAP-mGluR3 (protein)
chain: LGDHNFMRREIKIEGDLVLGGLFPINEKGTGTEECGRINEDRGIQRLEAMLFAIDEINKDNYLLPGVKLGVHILDTCSRDTYALEQSLEFVRASLTKVDEAEYMCPDGSYAIQENIPLLIAGVIGGSYSSVSIQVANLLRLFQIPQISYASTSAKLSDKSRYDYFARTVPPDFYQAKAMAEILRFFNWTYVSTVASEGDYGETGIEAFEQEARLRNICIATAEKVGRSNIRKSYDSVIRELLQKPNARVVVLFMRSDDSRELIAAANRVNASFTWVASDGWGAQESIVKGSEHVAYGAITLELASHPVRQFDRYFQSLNPYNNHRNPWFRDFWEQKFQCSLQNKRNHRQVCDKHLAIDSSNYEQESKIMFVVNAVYAMAHALHKMQRTLCPNTTKLCDAMKILDGKKLYKEYLLKINFTAPFNPNKGADSIVKFDTFGDGMGRYNVFNLQQTGGKYSYLKVGHWAETLSLDVDSIHWSRNSVPTSQCSDPCAPNEMKNMQPGDVCCWICIPCEPYEYLVDEFTCMDCGPGQWPTADLSGCYNLPEDYIKWEDAWAIGPVTIACLGFLCTCIVITVFIKHNNTPLVKASGRELCYILLFGVSLSYCMTFFFIAKPSPVICALRRLGLGTSFAICYSALLTKTNCIARIFDGVKNGAQRPKFISPSSQVFICLGLILVQIVMVSVWLILETPGTRRYTLPEKRETVILKCNVKDSSMLISLTYDVVLVILCTVYAFKTRKCPENFNEAKFIGFTMYTTCIIWLAFLPIFYVTSSDYRVQTTTMCISVSLSGFVVLGCLFAPKVHIVLFQPQKNVVTHRLHLNRFSVSGTATTYSQSSASTYVPTVCNGREVLDSTTSSL
modifications: SNAP tag labelled with BG-LD555 (BG-LD655 in two-colour SiMPull); left off: HA, N-terminal, kept | SNAP, N-terminal, kept

- Basal LBD FRET (%) [3]: 0%
B3: SNAP-mGluR2 (protein)
chain: EGPAKKVLTLEGDLVLGGLFPVHQKGGPAEECGPVNEHRGIQRLEAMLFALDRINRDPHLLPGVRLGAHILDSCSKDTHALEQALDFVRASLSRGADGSRHICPDGSYATHSDAPTAVTGVIGGSYSDVSIQVANLLRLFQIPQISYASTSAKLSDKSRYDYFARTVPPDFFQAKAMAEILRFFNWTYVSTVASEGDYGETGIEAFELEARARNICVATSEKVGRAMSRAAFEGVVRALLQKPSARVAVLFTRSEDARELLAATQRLNASFTWVASDGWGALESVVAGSERAAEGAITIELASYPISDFASYFQSLDPWNNSRNPWFREFWEERFHCSFRQRDCAAHSLRAVPFEQESKIMFVVNAVYAMAHALHNMHRALCPNTTHLCDAMRPVNGRRLYKDFVLNVKFDAPFRPADTDDEVRFDRFGDGIGRYNIFTYLRAGSGRYRYQKVGYWAEGLTLDTSFIPWASPSAGPLPASRCSEPCLQNEVKSVQPGEVCCWLCIPCQPYEYRLDEFTCADCGLGYWPNASLTGCFELPQEYIRWGDAWAVGPVTIACLGALATLFVLGVFVRHNATPVVKASGRELCYILLGGVFLCYCMTFVFIAKPSTAVCTLRRLGLGTAFSVCYSALLTKTNRIARIFGGAREGAQRPRFISPASQVAICLALISGQLLIVAAWLVVEAPGTGKETAPERREVVTLRCNHRDASMLGSLAYNVLLIALCTLYAFKTRKCPENFNEAKFIGFTMYTTCIIWLAFLPIFYVTSSDYRVQTTTMCVSVSLSGSVVLGCLFAPKLHIILFQPQKNVVSHRAPTSRFGSAAPRASANLGQGSGSQFVPTVCNGREVVDSTTSSL
modifications: SNAP tag labelled with BG-LD555 (BG-LD655 in two-colour SiMPull); left off: HA, N-terminal, kept | SNAP, N-terminal, kept

- Basal LBD FRET (%) [4]: 0%
B4: SNAP-mGluR2-3xTM4 (protein)
chain: EGPAKKVLTLEGDLVLGGLFPVHQKGGPAEECGPVNEHRGIQRLEAMLFALDRINRDPHLLPGVRLGAHILDSCSKDTHALEQALDFVRASLSRGADGSRHICPDGSYATHSDAPTAVTGVIGGSYSDVSIQVANLLRLFQIPQISYASTSAKLSDKSRYDYFARTVPPDFFQAKAMAEILRFFNWTYVSTVASEGDYGETGIEAFELEARARNICVATSEKVGRAMSRAAFEGVVRALLQKPSARVAVLFTRSEDARELLAATQRLNASFTWVASDGWGALESVVAGSERAAEGAITIELASYPISDFASYFQSLDPWNNSRNPWFREFWEERFHCSFRQRDCAAHSLRAVPFEQESKIMFVVNAVYAMAHALHNMHRALCPNTTHLCDAMRPVNGRRLYKDFVLNVKFDAPFRPADTDDEVRFDRFGDGIGRYNIFTYLRAGSGRYRYQKVGYWAEGLTLDTSFIPWASPSAGPLPASRCSEPCLQNEVKSVQPGEVCCWLCIPCQPYEYRLDEFTCADCGLGYWPNASLTGCFELPQEYIRWGDAWAVGPVTIACLGALATLFVLGVFVRHNATPVVKASGRELCYILLGGVFLCYCMTFVFIAKPSTAVCTLRRLGLGTAFSVCYSALLTKTNRIARIFGGAREGAQRPRFISPSSQVFICLGLISGQLLIVAAWLVVEAPGTGKETAPERREVVTLRCNHRDASMLGSLAYNVLLIALCTLYAFKTRKCPENFNEAKFIGFTMYTTCIIWLAFLPIFYVTSSDYRVQTTTMCVSVSLSGSVVLGCLFAPKLHIILFQPQKNVVSHRAPTSRFGSAAPRASANLGQGSGSQFVPTVCNGREVVDSTTSSL
modifications: SNAP tag labelled with BG-LD555; left off: HA, N-terminal, kept | SNAP, N-terminal, kept

Second part, the molecule before the results:

B2: SNAP-mGluR3-C127A-I788A (protein)
chain: LGDHNFMRREIKIEGDLVLGGLFPINEKGTGTEECGRINEDRGIQRLEAMLFAIDEINKDNYLLPGVKLGVHILDTCSRDTYALEQSLEFVRASLTKVDEAEYMAPDGSYAIQENIPLLIAGVIGGSYSSVSIQVANLLRLFQIPQISYASTSAKLSDKSRYDYFARTVPPDFYQAKAMAEILRFFNWTYVSTVASEGDYGETGIEAFEQEARLRNICIATAEKVGRSNIRKSYDSVIRELLQKPNARVVVLFMRSDDSRELIAAANRVNASFTWVASDGWGAQESIVKGSEHVAYGAITLELASHPVRQFDRYFQSLNPYNNHRNPWFRDFWEQKFQCSLQNKRNHRQVCDKHLAIDSSNYEQESKIMFVVNAVYAMAHALHKMQRTLCPNTTKLCDAMKILDGKKLYKEYLLKINFTAPFNPNKGADSIVKFDTFGDGMGRYNVFNLQQTGGKYSYLKVGHWAETLSLDVDSIHWSRNSVPTSQCSDPCAPNEMKNMQPGDVCCWICIPCEPYEYLVDEFTCMDCGPGQWPTADLSGCYNLPEDYIKWEDAWAIGPVTIACLGFLCTCIVITVFIKHNNTPLVKASGRELCYILLFGVSLSYCMTFFFIAKPSPVICALRRLGLGTSFAICYSALLTKTNCIARIFDGVKNGAQRPKFISPSSQVFICLGLILVQIVMVSVWLILETPGTRRYTLPEKRETVILKCNVKDSSMLISLTYDVVLVILCTVYAFKTRKCPENFNEAKFIGFTMYTTCIIWLAFLPAFYVTSSDYRVQTTTMCISVSLSGFVVLGCLFAPKVHIVLFQPQKNVVTHRLHLNRFSVSGTATTYSQSSASTYVPTVCNGREVLDSTTSSL
modifications: SNAP tag labelled with BG-LD555; left off: HA, N-terminal, kept | SNAP, N-terminal, kept
- Surface Expression [2]: 1.29 and 0.91 and 1.30 and 0.67 and 0.74 and 0.86 and 1.22 and 0.70

B5: SNAP-mGluR3-I788A (protein, UniProt Q14832 23-879, looked up, variant I788A)
Metabotropic glutamate …: LGDHNFLRREIKIEGDLVLGGLFPINEKGTGTEECGRINEDRGIQRLEAMLFAIDEINKDDYLLPGVKLGVHILDTCSRDTYALEQSLEFVRASLTKVDEAEYMCPDGSYAIQENIPLLIAGVIGGSYSSVSIQVANLLRLFQIPQISYASTSAKLSDKSRYDYFARTVPPDFYQAKAMAEILRFFNWTYVSTVASEGDYGETGIEAFEQEARLRNICIATAEKVGRSNIRKSYDSVIRELLQKPNARVVVLFMRSDDSRELIAAASRANASFTWVASDGWGAQESIIKGSEHVAYGAITLELASQPVRQFDRYFQSLNPYNNHRNPWFRDFWEQKFQCSLQNKRNHRRVCDKHLAIDSSNYEQESKIMFVVNAVYAMAHALHKMQRTLCPNTTKLCDAMKILDGKKLYKDYLLKINFTAPFNPNKDADSIVKFDTFGDGMGRYNVFNFQNVGGKYSYLKVGHWAETLSLDVNSIHWSRNSVPTSQCSDPCAPNEMKNMQPGDVCCWICIPCEPYEYLADEFTCMDCGSGQWPTADLTGCYDLPEDYIRWEDAWAIGPVTIACLGFMCTCMVVTVFIKHNNTPLVKASGRELCYILLFGVGLSYCMTFFFIAKPSPVICALRRLGLGSSFAICYSALLTKTNCIARIFDGVKNGAQRPKFISPSSQVFICLGLILVQIVMVSVWLILEAPGTRRYTLAEKRETVILKCNVKDSSMLISLTYDVILVILCTVYAFKTRKCPENFNEAKFIGFTMYTTCIIWLAFLPAFYVTSSDYRVQTTTMCISVSLSGFVVLGCLFAPKVHIILFQPQKNVVTHRLHLNRFSVSGTGTTYSQSSASTYVPTVCNGREVLDSTTSSL
modifications: N-terminal SNAP tag
- Surface Expression [2]: 1.08 and 0.88 and 0.76 and 0.68 and 0.70 and 0.97 and 0.75
